Our source for the Mean relative activity values is patent US20220259593A1, “CONTROL OF MAMMALIAN GENE DOSAGE USING CRISPR” (The Regents of the University of California, priority 2019, published 2022).

The data set deals with K562 CRISPRi cells. Put plainly: Constant region variant library pooled growth screen, K562. The data set is classed as cell-based, human. The settings on record: sgRNA constant region variants; activity relative to the original, un-modified constant region cr995. In short, it runs like this:
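Library of sgRNA constant-region variants, each paired with 36 targeting sequences (essential-gene and non-targeting), transduced in duplicate into K562 CRISPRi cells, puromycin-selected and grown 4–8 days at >2000× coverage. Activity per variant is its growth phenotype normalised to the same targeting sequence with unmodified constant region.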

B1: cr319 (nucleic acid)
guide: GTTTAAGAGCTAAGCTGGAAACAGCATAGCAAGTTTAAATAGGGCTAGTCCGTTATCAACTTGAGAAAGTGGCACCGAGTCGGTGCT
modifications: listed as DNA, chemistry not fully specified
Molecule B1 showed a Mean relative activity of 0.8419.

B2: cr785 (nucleic acid)
guide: GTTTAAGAGCTAAGCTGGAAACAGCATAGCAAGTTTAAATAAGGCGAGTCCGTTATCAACTTGAAAAAGTGGCACCGAGTCGGTGCG
modifications: listed as DNA, chemistry not fully specified
Molecule B2 gave a Mean relative activity of 0.8378.

B3: cr506 (nucleic acid)
guide: GTTTAAGAGCTAAGCTGGAAACAGCATAGCAAGTTTAAATAAGCCTAGTGCGTTATCAACTTGAAAAAGTGGGACCGAGTCGGTCCT
modifications: listed as DNA, chemistry not fully specified
In turn, B3 yielded a Mean relative activity of 0.8078.

B4: cr585 (nucleic acid)
guide: GTTTAAGAGCTAAGCTGGAAACAGCATAGCAAGTTTAAATAAGGCTAGTCCGTTATCAACTTGAAAAAGTGGCTCCGAGTCGGAGCT
modifications: listed as DNA, chemistry not fully specified
The molecule B4 had a Mean relative activity of 1.056.

B5: cr919 (nucleic acid)
guide: GTTTAAGAGCTAAGCTGGAAACAGCATAGCAAGTTTAAATAAGGCTAGTCCGTTATCACCTGGAAACAGGGGCACCGAGTCGGTGCT
modifications: listed as DNA, chemistry not fully specified
Regarding B5, the Mean relative activity was determined as 1.056.

B6: cr470 (nucleic acid)
guide: GTTTAAGAGCTAAGCTGGAAACATCATAGCAAGTTTAAATAAGGCTAGTCCGTTATCAACTTGAAAAAGTGGCACCGAGTCGGTGCT
modifications: listed as DNA, chemistry not fully specified
Take B6: the Mean relative activity turned out to be 0.809.

B7: cr697 (nucleic acid)
guide: GTTTAAGAGCTAAGCTGGAAACAGCATTGCAAGTTTAAATAAGGCGAGTCCGTTATCAACTTGCAAAAGTGGCACCGAGTCGGTGCT
modifications: listed as DNA, chemistry not fully specified
In the case of B7, the Mean relative activity is reported as 0.8183.

B8: cr162 (nucleic acid)
guide: GTTTAAGAGCTAAGCTGGAAACAGCATAGCAAGTTTAAATAAGGCTAGTCCGTTATCAACTTGAAAAAGTGGCACCGAGTCGGAGCT
modifications: listed as DNA, chemistry not fully specified
B8 returned a Mean relative activity of 0.8263.

B9: cr871 (nucleic acid)
guide: GTTTAAGAGCTAAGCTGGAAACAGCATAGCAAGTTTAAATAAGCCTAGTGCGTTATCAACTTGAAAAAGTGGCACCGAGTCGGTGCT
modifications: listed as DNA, chemistry not fully specified
In the case of B9, the Mean relative activity was 0.8313.

B10: cr733 (nucleic acid)
guide: GTTTAAGAGCTAAGCTGGAAACAGCATAGCAAGTTTAAATAAGGCTAGTCCGTTATCAACTTGAAAAAGTGGCAAAGAGTCTTTGCT
modifications: listed as DNA, chemistry not fully specified
With B10, the Mean relative activity is reported as 0.807.

B11: cr621 (nucleic acid)
guide: GTTTAAGAGCTAAGCTGGAAACAGCATAGCAAGTTTAAATAAGACTAGTTCGTTATCAACGTGAAAACGTGGCACCAAGTTGGTGCT
modifications: listed as DNA, chemistry not fully specified
In turn, B11 gave a Mean relative activity of 0.818.

B12: cr678 (nucleic acid)
guide: GTTTAAGAGCTAAGCTGGAAACAGCATAGCAAGTTTAAATAAGGCTAGTCCGTTATCAACTTGAAAAAGTGGCACCGAGTCGGTACT
modifications: listed as DNA, chemistry not fully specified
B12: the Mean relative activity worked out at 0.8081.

B13: cr601 (nucleic acid)
guide: GTTTAAGAGCTAAGCTGGAAACAGCATAGAAAGTTTAAATAAGGCTAGTCCGTTATCAACTTGAAAAAGTGGCACCGAGTCGGTGCT
modifications: listed as DNA, chemistry not fully specified
The molecule B13 came in with a Mean relative activity of 0.8216.

B14: cr916 (nucleic acid)
guide: GTTTAAGAGCTAAGCTGGAAACAGCATAGCAAGTTTAAATAAGACTAGTTCGTTATCAACTTGAGAAAGTGGCACCGAGTCGGTGCT
modifications: listed as DNA, chemistry not fully specified
Regarding B14, the Mean relative activity is given as 0.8207.

B15: cr543 (nucleic acid)
guide: GTTTAAGAGCTAAGCTGGAAACAGCATAGCAAGTCTAAATAAGGCTAGTCCGTTATCAACTTGAAAAAGTGGCACCGAGTCGGTGCT
modifications: listed as DNA, chemistry not fully specified
B15 came in with a Mean relative activity of 0.8231.

B16: cr517 (nucleic acid)
guide: GTTTAAGAGCTAAGCTGGAAACAGCATAGCAAGTTTAAATAAGGCTAGTCCGTTATCAACTTGAAAAAGTGGCACCGAGTCTGTGCT
modifications: listed as DNA, chemistry not fully specified
In the case of B16, the Mean relative activity is reported as 0.8173.

B17: cr289 (nucleic acid)
guide: GTTTAAGAGCTAAGCTGGAAACAGCATAGCAAGTTTAAATAAGGCTAGTCCGTTATCAACTGGAAACAGTGGCACCGAGTCGGTGCT
modifications: listed as DNA, chemistry not fully specified
The molecule B17 returned a Mean relative activity of 1.102.

B18: cr816 (nucleic acid)
guide: GTTTAAGAGCTAAGCTGGAAACAGCATAGCAAGTTTAAATAAGGCTAGTCCGTTATCAACTTGAAAAAGTTGCACCGAGTCGGTGCT
modifications: listed as DNA, chemistry not fully specified
In the case of B18, the Mean relative activity is given as 0.8315.

B19: cr435 (nucleic acid)
guide: GTTTAAGAGCTAAGCTGGAAACAGCATAGCCAGTTTAAATAAGGCTAGTCCGGTATCAACTTGAAAAAGTGGCACCGAGTCGGTGCT
modifications: listed as DNA, chemistry not fully specified
As to B19, the Mean relative activity is reported as 0.8281.

B20: cr370 (nucleic acid)
guide: GTTTAAGAGCTAAGCTGGAAACAGCATAGCAAGTTTAAATAAGGCTAGTCCGTTATCAACTTGAGAAAGTGGCACGGAGTCCGTGCT
modifications: listed as DNA, chemistry not fully specified
As for B20, the Mean relative activity is reported as 0.8417.

B21: cr554 (nucleic acid)
guide: GTTTAAGAGCTAAGCTGGAAACAGCATAGCAGGTTTAAATAAGGCTAGTCCGTTACCAACTTGAAAAAGTAGCACCGAGTCGGTGCT
modifications: listed as DNA, chemistry not fully specified
Consider B21, for which the Mean relative activity came out at 0.8332.

B22: cr362 (nucleic acid)
guide: GTTTAAGAGCTAAGCTGGAAACAGCATAGCAAGTTTAAATAAGGCTAGTCCGTTATCAACTTGAAAAAGTGGCACAGAGTCGGTGCT
modifications: listed as DNA, chemistry not fully specified
B22 yielded a Mean relative activity of 0.8214.

B23: cr420 (nucleic acid)
guide: GTTTAAGAGCTAAGCTGGAAACAGCATAGCAAGTTTAAATAAGGCTAGTCCGTTATCAACTTGAAAAAGTGTGACCTAGTAGGTCAT
modifications: listed as DNA, chemistry not fully specified
The molecule B23 had a Mean relative activity of 0.8229.

B24: cr391 (nucleic acid)
guide: GTTTAAGAGCTAAGCTGGAAACAGCATAGCAAGTTTAAATAAGCCTAGTGCGTTATCAACTTGAAAAAGTGGCAACGAGTCGTTGCT
modifications: listed as DNA, chemistry not fully specified
As for B24, the Mean relative activity is 0.8216.

B25: cr740 (nucleic acid)
guide: GTTTAAGAGCTAAGCTGGAAACAGCATAGCAAGTTTAAATAAGGCTAGTCCGTTATCAACTTGAAAAAGTGCCAGCGAGTCGCTGGT
modifications: listed as DNA, chemistry not fully specified
On to B25, for which the Mean relative activity came to 0.8153.

B26: cr647 (nucleic acid)
guide: GTTTAAGAGCTAAGCTGGAAACAGGATAGCAAGTTTAAATAAGGCTAGTCCGTTATCAACTTGAAAAAGTGGCACCGAGTCGGTGCT
modifications: listed as DNA, chemistry not fully specified
B26 gave a Mean relative activity of 0.8408.

B27: cr911 (nucleic acid)
guide: GTTTAAGAGCTAAGCTGGAAACAGCATAGCAAGTTTAAATAAGGCACGTCCGTTATCAACTTGAAAAAGTGGCACCGAATCGGTGCT
modifications: listed as DNA, chemistry not fully specified
For B27, the Mean relative activity came out at 0.8101.

B28: cr407 (nucleic acid)
guide: GTTTAAGAGCTAAGCTGGAAACAGCATAGCAAGTTTAAATAAGCCTAGTGCGTTATCAACCTGAAAAGGTGGCATCGAGTCGATGCT
modifications: listed as DNA, chemistry not fully specified
B28 had a Mean relative activity of 0.8278.

B29: cr590 (nucleic acid)
guide: GTTTAAGAGCTAAGCTGGAAACAGCATAGCAAGTTTAAATAAGGCTAGTCCGTTATCAACTTGACAAAGTGGCACCGAGCCGGTGCT
modifications: listed as DNA, chemistry not fully specified
B29 came in with a Mean relative activity of 0.8361.
